A word on the Kd: it is the concentration at which binding is half-saturated.

Where only a bound is given, the exact number is not on record here.

Data on 25 sequences can be found in the Immune Epitope Database (IEDB).

The target of one assay is HLA-B*54:01. The experiment in a line: IEDB peptide-MHC binding, purified MHC/competitive/radioactivity; filed as Kd, often an IC50 or EC50 that approximates it; ≥ and ≤ were set here for values at or beyond the usual limits of such assays.
For the next assay, the target named is HLA-B*53:01. The description is as above.
The target in a further assay is HLA-B*07:02. The description is as above.
The next assay deals with HLA-B*35:01. The description is as above.
In another assay the target is HLA-B*51:01. The assay is described as above.
The target of assay [1] is HLA-A*02:01. The description is as above.
Assay [2] addresses HLA-A*02:01. Kind of assay: IEDB peptide-MHC binding, purified MHC/competitive/fluorescence; filed as Kd, often an IC50 or EC50 that approximates it; ≥ and ≤ were set here for values at or beyond the usual limits of such assays.
The next assay has as its target HLA-B*48:01. The experiment in a line: IEDB peptide-MHC binding, purified MHC/direct/fluorescence; filed as Kd, often an IC50 or EC50 that approximates it; ≥ and ≤ were set here for values at or beyond the usual limits of such assays.
The target in a further assay is HLA-A*02:06. The experiment in a line: IEDB peptide-MHC binding, purified MHC/competitive/radioactivity; filed as Kd, often an IC50 or EC50 that approximates it; ≥ and ≤ were set here for values at or beyond the usual limits of such assays. To be noted: source organism: Vaccinia virus WR.
Another assay has as its target HLA-A*02:02. The description is as above. The settings on record: source organism: Vaccinia virus WR.
A further assay deals with HLA-A*02:03. Described as above. The settings on record: source organism: Vaccinia virus WR.
The target in the next assay is HLA-B*40:01. Kind of assay: IEDB peptide-MHC binding, purified MHC/direct/fluorescence; filed as Kd, often an IC50 or EC50 that approximates it; ≥ and ≤ were set here for values at or beyond the usual limits of such assays. The settings on record: source organism: Mammarenavirus lassaense.
For another assay, the target named is HLA-B*18:01. The description is as above. To be noted: source organism: Mammarenavirus lassaense.
Where [3] appears, read: source organism: Triticum aestivum.
Where [4] appears, read: source organism: Vaccinia virus WR.
The mark [5] stands for this setting: source organism: Lymphocytic choriomeningitis virus (strain WE).
[6] abbreviates: source organism: SARS coronavirus Tor2.
The mark [7] stands for this setting: source organism: Dengue virus 2 Jamaica/1409/1983.
The mark [8] stands for this setting: source organism: Lassa virus Josiah.
[9] abbreviates: source organism: Mammarenavirus lassaense.

Consider YPQPQLPY, for which the Kd in the assay with HLA-B*54:01 (setting [3]) was no less than 54.5 µM; in the assay with HLA-B*53:01 (setting [3]), 1.34 µM; with HLA-B*07:02 (setting [3]), no less than 22.6 µM; with HLA-B*35:01 (setting [3]) it was 0.249 µM; in the assay with HLA-B*51:01 (setting [3]), 10.9 µM.
Take LLNATDIAVA: in the assay with HLA-A*02:01 [1] (source organism: Human immunodeficiency virus 1), the Kd came out at 0.427 µM.
With RPRFDDAYNI, the Kd with HLA-B*54:01 (setting [4]) came to 2.38 µM; in the assay with HLA-B*53:01 (setting [4]) it was 0.0327 µM; in the assay with HLA-B*07:02 (setting [4]), 0.00526 µM; with HLA-B*35:01 (setting [4]), 15 µM; with HLA-B*51:01 (setting [4]), 3.41 µM.
ALFYKDGKL gave a Kd with HLA-A*02:01 [2] (source organism: Variola major virus) of 0.533 µM.
As to EPVESCPLM, the Kd is no less than 78.1 µM with HLA-B*54:01 (setting [5]); 0.177 µM in the assay with HLA-B*53:01 (setting [5]); 5.1 µM in the assay with HLA-B*07:02 (setting [5]); 0.0267 µM with HLA-B*35:01 (setting [5]); 1.92 µM with HLA-B*51:01 (setting [5]).
With SPLFLIVAA, the dissociation constant Kd with HLA-B*54:01 (setting [6]) is 0.00252 µM; in the assay with HLA-B*53:01 (setting [6]) it was no less than 44.7 µM; in the assay with HLA-B*07:02 (setting [6]), 0.481 µM; with HLA-B*35:01 (setting [6]), 1.04 µM; with HLA-B*51:01 (setting [6]), 12.1 µM.
On to LRWLVERRF, for which the dissociation constant Kd in the assay with HLA-B*48:01 (source organism: West Nile virus) was no less than 20 µM.
On to LPETLETLLL, for which the Kd with HLA-B*53:01 (setting [7]) was determined as 0.0376 µM; with HLA-B*51:01 (setting [7]), 11 µM.
Consider MLWTTDKHV, for which the Kd with HLA-A*02:01 [2] (source organism: Human alphaherpesvirus 1 strain 17) was determined as 1.29 µM.
In the case of FRKGSSIGK, in the assay with HLA-B*48:01 (source organism: dengue virus type 1), the Kd is no less than 20 µM.
As for WMMAMRYPITA, the dissociation constant (Kd) with HLA-A*02:01 [2] (source organism: Influenza A virus (A/chicken/Fujian/25/00(H9N2))) is 0.0015 µM.
With QIFNIISYI, the Kd was 0.0311 µM with HLA-A*02:01 [2] (source organism: Variola virus), 0.00178 µM with HLA-A*02:06, 0.111 µM with HLA-A*02:02 and 0.0151 µM with HLA-A*02:03.
Take AACRAAGL: the Kd in the assay with HLA-A*02:01 [1] (source organism: Hepatitis C virus (isolate 1)) was no less than 50 µM.
On to IPVDLVKSSF, for which the Kd is 0.297 µM in the assay with HLA-B*54:01 (setting [4]); 0.00861 µM with HLA-B*53:01 (setting [4]); 0.0205 µM with HLA-B*07:02 (setting [4]); 0.00543 µM with HLA-B*35:01 (setting [4]); 5.38 µM with HLA-B*51:01 (setting [4]).
As for RTCSNWVPL, in the assay with HLA-A*02:01 [2] (source organism: Vaccinia virus Ankara), the dissociation constant Kd was 0.329 µM.
As to SMRRNYFTAEV, in the assay with HLA-A*02:01 [2] (source organism: Influenza A virus (A/quail/Hong Kong/SF550/00(H6N1))), the Kd amounted to 1.33 µM.
With NMETLNMTM, the Kd in the assay with HLA-A*02:01 [1] (setting [8]) came to 1.39 µM.
Take MPDCGMSVLA: the dissociation constant (Kd) with HLA-B*54:01 (setting [9]) worked out at 0.105 µM; with HLA-B*53:01 (setting [9]), 0.442 µM; with HLA-B*07:02 (setting [9]), 3.88 µM; with HLA-B*35:01 (setting [9]), 0.0922 µM; in the assay with HLA-B*51:01 (setting [9]), 9.18 µM.
As to TPEQKAYVPA, the equilibrium dissociation constant (Kd) in the assay with HLA-B*54:01 (setting [4]) was 0.0133 µM; with HLA-B*53:01 (setting [4]) it was no less than 45.2 µM; with HLA-B*07:02 (setting [4]), 1.23 µM; with HLA-B*35:01 (setting [4]) it was 11 µM; with HLA-B*51:01 (setting [4]) it was no less than 55.2 µM.
As to LLMDCSGSI, the Kd with HLA-A*02:01 [2] (source organism: Plasmodium falciparum) is 0.0013 µM.
In the case of YLLFASMGFK, the figures for the Kd with HLA-B*07:02 (setting [4]), with HLA-B*35:01 (setting [4]) and with HLA-A*02:01 [1] (setting [4]) were no less than 69.6 µM, no less than 69.9 µM and 2.57 µM, respectively.
For PEDPVEIAL, the equilibrium dissociation constant (Kd) in the assay with HLA-B*40:01 is 0.16 µM; with HLA-B*18:01 it was no less than 20 µM.
Regarding HPLSINVSGV, the dissociation constant Kd in the assay with HLA-B*54:01 (setting [4]) was 0.12 µM; in the assay with HLA-B*53:01 (setting [4]), 18.8 µM; in the assay with HLA-B*07:02 (setting [4]), 3.84 µM; with HLA-B*35:01 (setting [4]), no less than 54.2 µM; with HLA-B*51:01 (setting [4]), no less than 29.6 µM.
Taken in the same sequence, the figures for KPKFCLIDGM were 14.5 µM, 11.9 µM, 0.0802 µM, no less than 22.4 µM and no less than 69.6 µM.
With DLFATQPGL, the Kd with HLA-A*02:01 [1] (setting [8]) was determined as 12.5 µM.
